From US8889621B2, “Inhibiting binding of FGF23 to the binary FGFR-Klotho complex for the treatment of hypophosphatemia” (New York University, priority 2009, dated 2014) come the findings set out here.

“Also recorded” adds a separate entry of the source. Peptide text beside a SMILES is read from it.

For assay [1], the system named is binary FGFR-Klotho complexes (FGFR1c, FGFR3c, or FGFR4). Kind of assay: Co-immunoprecipitation based competition assay, HEK293-Klotho lysates. The assay is classed as binding. From the text: Co-immunoprecipitation may also be used to determine that an agent specifically binds the binary FGFR-Klotho complex. One aspect of the present invention utilizes co-immunoprecipitation studies. Subconfluent cultures of a HEK293 cell line ectopically expressing the FLAG-tagged membrane-spanning form of murine Klotho were transfected with expression vectors for V5-tagged FGFR1c, FGFR3c, or FGFR4. Two days later, the cells were lysed, and FGFR-Klotho complexes were isolated from cell lysate using anti-V5 agarose beads. The beads were then incubated with either FGF23^180-251 or FGF23^28-251 alone, or with mixtures of FGF23^28-251 with either increasing FGF23^180-251 or increasing FGF23^180-205. Bead-bound proteins were resolved on SDS-polyacrylamide gels, transferred to nitrocellulose membranes, and labeled using antibodies to Klotho, FGF23, and V5 epitope tag.
In parallel, subconfluent HEK293-Klotho cells (Kurosu et al., “Regulation of Fibroblast Growth Factor-23 Signaling by Klotho,” J Biol Chem 281(10):6120-6123 (2006), which is hereby incorporated by reference in its entirety) were transfected with expression vectors for V5-tagged FGFR1c, FGFR3c, or FGFR4 (Kurosu et al., “Regulation of Fibroblast Growth Factor-23 Signaling by Klotho,” J Biol Chem 281(10):6120-6123 (2006), which is hereby incorporated by reference in its entirety) and binding of FGF23 proteins/peptides to Klotho-FGFR complexes isolated from cell lysate was analyzed. Two days later, the cells were lysed (Kurosu et al, “Suppression of Aging in Mice by the Hormone Klotho,” Science 309(5742):1829-1833 (2005), which is hereby incorporated by reference in its entirety), and FGFR-Klotho complexes were isolated from cell lysate using anti-V5 agarose beads (Sigma-Aldrich) (Kurosu et al., “Regulation of Fibroblast Growth Factor-23 Signaling by Klotho,” J Biol Chem 281(10):6120-6123 (2006), which is hereby incorporated by reference in its entirety). The beads were then incubated with either FGF23^180-251 (1 nM) or FGF23^28-251 (1 nM) alone, or with mixtures of FGF23^28-251 (1 nM) with either increasing FGF23^180-251 (2 to 76 nM) or increasing FGF23^180-205 (0.1 to 10 μM). Bead-bound proteins were resolved on SDS-polyacrylamide gels, transferred to nitrocellulose membranes, and labeled using antibodies to Klotho (KM2119, (Kato et al., “Establishment of the Anti-Klotho Monoclonal Antibodies and Detection of Klotho Protein in Kidneys,” Biochemical Biophysical Res Communications 267(2):597-602 (2000), which is hereby incorporated by reference in its entirety)), FGF23 (R&D systems), and V5 epitope tag (Invitrogen).

The next assay relates to NaPi-2A. Nature of the assay: NaPi-2A protein abundance in apical brush border membrane of rat kidney. Conditions: IV 0.1 μg kg body weight^−1, 3 h post injection, vs vehicle. The assay is classed as in vivo. As to the method:
Immunoblot analysis of NaPi-2A and NaPi-2C protein abundance in renal cortex tissue and isolated brush border membrane vesicles (BBMV), and NaPi-2A immunostaining of renal tissue were performed as described (Bacic et al., “Activation of Dopamine Dl-like Receptors Induces Acute Internalization of the Renal Na^+/phosphate Cotransporter NaPi-IIa in Mouse Kidney and OK cells,” Am J Physiol Renal Physiol 288(4):F740-747 (2005), Loffing et al., “Renal Na/H Exchanger NHE-3 and Na—PO4 Cotransporter NaPi-2 Protein Expression in Glucocorticoid Excess and Deficient States,” J Am Soc Nephrol 9(9):1560-1567 (1998), Moe et al., “Dietary NaCl Modulates Na(+)-H+ Antiporter Activity in Renal Cortical Apical Membrane Vesicles,” Am J Physiol 260(1 Pt 2):F130-137 (1991), which are hereby incorporated by reference in their entirety).
For immunoblot, rat kidney cortices were dissected and homogenized, and BBMV were isolated (Loffing et al., “Renal Na/H Exchanger NHE-3 and Na—PO4 Cotransporter NaPi-2 Protein Expression in Glucocorticoid Excess and Deficient States,” J Am Soc Nephrol 9(9):1560-1567 (1998), Moe et al., “Dietary NaCl Modulates Na(+)-H+ Antiporter Activity in Renal Cortical Apical Membrane Vesicles. Am J Physiol 260(1 Pt 2):F130-137 (1991), which are hereby incorporated by reference in their entirety). […]

[2] abbreviates: co-immunoprecipitation competition.

In the case of `CSCC[C@H](NC(=O)[C@H](CCCNC(=N)N)NC(=O)[C@H](C)NC(=O)[C@H](CCCNC(=N)N)NC(=O)[C@@H]1CCCN1C(=O)[C@H](CCCCN)NC(=O)[C@H](CC(C)C)NC(=O)[C@@H](NC(=O)[C@H](CC(N)=O)NC(=O)[C@H](CC(C)C)NC(=O)[C@@H]1CCCN1C(=O)[C@H](CC(=O)O)NC(=O)[C@H](CCCNC(=N)N)NC(=O)[C@H](CCC(=O)O)NC(=O)[C@H](CO)NC(=O)[C@H](CC(=O)O)NC(=O)[C@H](CC(=O)O)NC(=O)[C@H](CCC(=O)O)NC(=O)[C@H](C)NC(=O)[C@@H](N)CO)C(C)C)C(=O)N[C@H](C(=O)N1CCC[C@H]1C(=O)N[C@@H](C)C(=O)N1CCC[C@H]1C(=O)N[C@@H](C)C(=O)N[C@@H](CO)C(=O)O)[C@@H](C)O` [FGF23^180-205] (H-SAEDDSERDPLNVLKPRARMTPAPAS-OH; N-terminus and C-terminus assumed), in assay [1] (setting [2]), the “inhibition of binding (co-precipitation) of FGF23^28-251 with binary FGFR-Klotho complexes” value is on record as “able to inhibit binding; also recorded: inhibited co-precipitation” and the “reduced potency compared to the FGF23^180-251 peptide” value is “over 100 fold”.

B1: FGF23^28-251: human FGF23 (A28 to I251), bioactive full-length ligand expressed in E. coli (protein, listed as Homo sapiens)
chain: ASPLLGSSWGGLIHLYTATARNSYHLQIHKNGHVDGAPHQTIYSALMIRSEDAGFVVITGVMSRRYLCMDFRGNIFGSHYFDPENCRFQHQTLENGYDVYHSPQYHFLVSLGRAKRAFLPGMNPPPYSQFLSRRNEIPLIHFNTPIPRRHTRSAEDDSERDPLNVLKPRARMTPAPASCSQELPSAEDNSPMASDPLGVVRGGRVNTHAGGTGPEGCRPFAKFI
On to B1, for which the “NaPi-2A protein expression in the apical brush border membrane” value in the assay on NaPi-2A is reported as “decrease; also recorded: diminished”.

B2: FGF23^180-251: 72-amino acid C-terminal tail of human FGF23 (S180 to I251), expressed in E. coli (protein, listed as Homo sapiens)
chain: SAEDDSERDPLNVLKPRARMTPAPASCSQELPSAEDNSPMASDPLGVVRGGRVNTHAGGTGPEGCRPFAKFI
B2: the “NaPi-2A protein expression in the apical brush border membrane” value with NaPi-2A is given as “increased”. Moreover, the “molar excess that completely blocked binding of FGF23^28-251 to the FGFR-Klotho complex” value in assay [1] (FGF23^28-251 1 nM) is listed as 76 fold molar excess. Also, the “inhibition of binding (co-precipitation) of FGF23^28-251 with binary FGFR-Klotho complexes” value in assay [1] (setting [2]) is listed as “can inhibit binding”.
